From patent US20240391950A1, “PEPTIDE CROSSLINKING AGENT AND CROSSLINKED PEPTIDE WHICH IS CROSSLINKED USING SAID CROSSLINKING AGENT” (Kagoshima University, priority 2020, published 2024)
Each block holds one binder with its values, some of them ahead of it. Positions of bridges follow the written chain, without caps; N, C: chain ends. No end group written: not given here.

What was measured:
[1] = target: human serum-derived IgG (manufactured by Sigma-Aldrich Co. LLC); test: 1 mL column with 1 mg peptide immobilised, human serum IgG; 1 wash with 0.1 N NaOH
[2] = target: human serum-derived IgG (manufactured by Sigma-Aldrich Co. LLC); test: 1 mL column with 1 mg peptide immobilised, human serum IgG 1 mg/mL at 1 mL/min; 1 wash with 0.1 N NaOH
[3] = target: human serum-derived IgG (manufactured by Sigma-Aldrich Co. LLC); test: 1 mL column with 1 mg peptide immobilised, human serum IgG, 10% breakthrough; 1 wash with 0.1 N NaOH
human IgG1 (human) [4] = test: SPR, BIAcore T200, IgG immobilised on CM5 chip, peptide as analyte
[5] = target: human serum-derived IgG (manufactured by Sigma-Aldrich Co. LLC); test: 1 mL column with 1 mg peptide immobilised, human serum IgG; 2 washes with 0.1 N NaOH
[6] = target: human serum-derived IgG (manufactured by Sigma-Aldrich Co. LLC); test: 1 mL column with 1 mg peptide immobilised, human serum IgG, 10% breakthrough; 2 washes with 0.1 N NaOH
[7] = target: human serum-derived IgG (manufactured by Sigma-Aldrich Co. LLC); test: 1 mL column with 1 mg peptide immobilised, human serum IgG, 10% breakthrough; 5 washes with 0.1 N NaOH
[8] = target: human serum-derived IgG (manufactured by Sigma-Aldrich Co. LLC); test: 1 mL column with 1 mg peptide immobilised, human serum IgG 1 mg/mL at 1 mL/min; 2 washes with 0.1 N NaOH
[9] = target: human serum-derived IgG (manufactured by Sigma-Aldrich Co. LLC); test: 1 mL column with 1 mg peptide immobilised, human serum IgG 1 mg/mL at 1 mL/min; 10 washes with 0.1 N NaOH
human IgG1 (human) [10] = test: SPR, BIAcore T200, IgG immobilised on CM5 chip
[11] = target: human serum-derived IgG (manufactured by Sigma-Aldrich Co. LLC); test: 1 mL column with 1 mg peptide immobilised, human serum IgG; 5 washes with 0.1 N NaOH
[12] = target: human serum-derived IgG (manufactured by Sigma-Aldrich Co. LLC); test: 1 mL column with 1 mg peptide immobilised, human serum IgG; 10 washes with 0.1 N NaOH
[13] = target: human serum-derived IgG (manufactured by Sigma-Aldrich Co. LLC); test: peptide-immobilised column, human serum IgG, 10% breakthrough
[14] = target: human serum-derived IgG (manufactured by Sigma-Aldrich Co. LLC); test: 1 mL column with 1 mg peptide immobilised, human serum IgG 1 mg/mL at 1 mL/min; 5 washes with 0.1 N NaOH
[15] = target: human serum-derived IgG (manufactured by Sigma-Aldrich Co. LLC); test: 1 mL column with 1 mg peptide immobilised, human serum IgG, 10% breakthrough; 10 washes with 0.1 N NaOH
human IgG1 (human) [16] = test: SPR, BIAcore T200, IgG immobilised on CM5 chip; the text value differs from Table 1 (8.0)

Variation (%) in maximum binding capacity [1]: 100% | Maximum binding capacity [2]: 12.1 mg | Dynamic binding capacity [3]: 16.7 mg/mL | Variation (%) in dynamic binding capacity [3]: 100% | Kd (human IgG1 (human) [4]): 112 nM | Variation (%) in maximum binding capacity [5]: 99.8% | Dynamic binding capacity [6]: 17.2 mg/mL | Variation (%) in dynamic binding capacity [6]: 103% | Dynamic binding capacity [7]: 16.2 mg/mL | Variation (%) in dynamic binding capacity [7]: 97.2% | Maximum binding capacity [8]: 12.1 mg | Maximum binding capacity [9]: 10.6 mg | fold reduction of affinity against the original peptide (human IgG1 (human) [10]): 14 fold | Variation (%) in maximum binding capacity [11]: 89.8% | Variation (%) in maximum binding capacity [12]: 87.1% | DBC relative to the original IgG-binding peptide-immobilized column [13]: 96% | Maximum binding capacity [14]: 10.9 mg | Dynamic binding capacity [15]: 14.5 mg/mL | Variation (%) in dynamic binding capacity [15]: 86.6%
B1: 1,1-dichloropinacolin-crosslinked cyclic peptide of IgG-BP-LongGS (peptide)
peptide: GSGGSGPDCAYHRGELVWCTFH
modifications: the thiol groups of the two Cys residues crosslinked with 1,1-dichloropinacolin in place of the disulfide bond; Fmoc removed

Variation (%) in maximum binding capacity [1]: 100% | Maximum binding capacity [2]: 12.4 mg | Dynamic binding capacity [3]: 17.2 mg/mL | Variation (%) in dynamic binding capacity [3]: 100% | Kd (human IgG1 (human) [4]): 8 nM | Dynamic binding capacity [7]: 8.74 mg/mL | Variation (%) in dynamic binding capacity [7]: 50.7% | Kd (human IgG1 (human) [16]): 8.2 nM | Variation (%) in maximum binding capacity [11]: 49.2% | Maximum binding capacity [14]: 6.09 mg
Binder: GSGGSGPDCAYHRGELVWCTFH (disulfide 9-19 (inferred); not fully specified) [IgG-BP-LongGS, original IgG-binding peptide having a disulfide bond (GSGGS-…)]
